{
  "source": "patent US20200129630A1",
  "about": "“METHODS FOR TREATING CANCER” (BicycleRD Limited, priority 2018, published 2020)",
  "origin": "cited, not measured here",
  "molecules": {"B1": {"name": "Cantuzumab mertansine: Anti-CanAg ADC with DM1, SPP cleavable linker (conjugate, chains of the INN, looked up)", "VH": "QVQLVQSGAEVKKPGETVKISCKASDYTFTYYGMNWVKQAPGQGLKWMGWIDTTTGEPTYAQKFQGRIAFSLETSASTAYLQIKSLKSEDTATYFCARRGPYNWYFDVWGQGTTVTVSS", "VL": "DIVMTQSPLSVPVTPGEPVSISCRSSKSLLHSNGNTYLYWFLQRPGQSPQLLIYRMSNLVSGVPDRFSGSGSGTAFTLRISRVEAEDVGVYYCLQHLEYPFTFGPGTKLELK", "modifications": "mertansine (DM1) via SPP linker"}, "B2": {"name": "Lorvotuzumab mertansine: anti-CD56 ADC with DM1, SPP cleavable linker (conjugate, chains of the INN, looked up)", "VH": "QVQLVESGGGVVQPGRSLRLSCAASGFTFSSFGMHWVRQAPGKGLEWVAYISSGSFTIYYADSVKGRFTISRDNSKNTLYLQMNSLRAEDTAVYYCARMRKGYAMDYWGQGTLVTVSS", "VL": "DVVMTQSPLSLPVTLGQPASISCRSSQIIIHSDGNTYLEWFQQRPGQSPRRLIYKVSNRFSGVPDRFSGSGSGTDFTLKISRVEAEDVGVYYCFQGSHVPHTFGQGTKVEIK", "modifications": "mertansine (DM1) via SPP linker"}},
  "key": {"[1]": {"details": "animals, 58 to 228 mg/m^2 (0.85 and […]^2 DM1) weekly"}, "[2]": {"assay": "not given", "remark": "listed apart in the source"}},
  "note": "Read-outs that look alike come from different tables or passages of the source.",
  "data": [
    {"molecule": "B1", "values": [
      {"measurement": "axonal degeneration", "setting": "[1]", "value": "mild axonal degeneration"},
      {"measurement": "DLT (Grade 3)", "setting": "IV three-times a week", "value": "transaminitis. Hepatic, hematological, and neurosensory"},
      {"measurement": "MTD", "setting": "IV three-times a week", "value": "three-times a week [37], The MTD was 45 mg/m^2"},
      {"measurement": "RP2D", "setting": "every 3 weeks", "value": "from this trial was 235 mg/m^2 every 3 weeks (~3.9 mg/m^2"},
      {"measurement": "t1/2", "setting": "in vivo", "value": 40, "unit": "h"},
      {"measurement": "MTD", "setting": "weekly administration", "value": "115 mg/m^2/week (~1.9 mg/m^2/week DM1) with DLTs"}
    ]},
    {"molecule": "B2", "values": [
      {"measurement": "Recommended Phase 2 dose (RP2D)", "setting": "[2]; 3 consecutive days every 3 weeks", "value": "Recommended Phase 2 dose (RP2D) was 60 mg/m^2"},
      {"measurement": "neurosensory AEs (all grades)", "setting": "[2]; all patients", "value": 17, "unit": "%"},
      {"measurement": "Grade 3 or 4 TEAEs hyponatremia and dyspnea (each)", "setting": "[2]; in vivo", "value": "(each 8.2%)[38]. Lorvotuzumab mertansine is currently"},
      {"measurement": "t½", "setting": "[2]; in vivo", "value": "approximately 40 hours"}
    ]}
  ]
}
